System: MS2 coat protein
Assay: apparent KD of MS2 coat protein; designed switch direction (-1 OFF switch, 1 ON switch): 1; higher = weaker reporter binding
Procedure, shortened: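 Stalled E. coli RNA polymerase transcribed designed RNA switches on Illumina chips, which were then titrated with SNAP-549-labelled MS2 coat protein, doubling from 0.7 or 1.5 nM to 3 µM. Steps lasted from 0.8–1.5 h at the lowest concentration to 10–20 min at the highest. The apparent KD is each design's median over clusters of curve-fitted normalised fluorescence.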

[1] = input ligand: microRNA oligo, concentration not stated
[2] = Eterna round: R95, input ligand: FMN 200 uM
[3] = Eterna round: R95, input ligand: microRNA oligo, concentration not stated
[4] = Eterna round: R95, input ligand: none

GGAAAGAGGUAAGGAUAUGCAUGGCUGGGACAUGAGGAUCACCCAUGUUAUAGAAGAAAUCUAGGGUAGAAGGUACAAGGAAGG [AK SSNG2-V2-9.1] (Eterna round: R96, puzzle: Same State NG 2)
apparent KD of MS2 coat protein (input ligand: FMN 200 uM): 0.464 µM | apparent KD of MS2 coat protein [1]: 0.199 µM | apparent KD of MS2 coat protein (input ligand: none): 0.455 µM

GCUAGAAUUAACGCCUACAUGAGGAUCACCCAUGUAUGUAGGCAGGAUAUCGUUUGCAAAGCAAACGAGAAGGGCCUUACUAGC [Mat - Same State NG 3 - JL Mod - D31] (Eterna round: R96, puzzle: Same State NG 3)
apparent KD of MS2 coat protein (input ligand: FMN 200 uM): 0.0273 µM | apparent KD of MS2 coat protein [1]: 0.031 µM | apparent KD of MS2 coat protein (input ligand: none): 0.0465 µM

GGGCCACAUGAGGAUCACCCAUGUGGAGCUAGUGCACGGUCACAGGAUAUCUCGUGGGCGUAUAGGGAGAAGGGUGAUUCAUUA [Eternabot solution 18] (Eterna round: R96, puzzle: Same State NG 3)
apparent KD of MS2 coat protein (input ligand: FMN 200 uM): 0.0472 µM | apparent KD of MS2 coat protein [1]: 0.0513 µM | apparent KD of MS2 coat protein (input ligand: none): 0.0523 µM

GAGGAGGAUACAGGAUAUAUACAUGAGGAUCACACAUACAUGACAUGAGGAUCACCCAUGUUUGUAUAGAAGGGUAAGAGGAGG [Seems to be working] (Eterna round: R96, puzzle: Same State NG 2)
apparent KD of MS2 coat protein (input ligand: FMN 200 uM): 0.0512 µM | apparent KD of MS2 coat protein [1]: 0.0242 µM | apparent KD of MS2 coat protein (input ligand: none): 0.0661 µM

UAAACUUCUUUUAGUGUAAUGCAUGUGAUACAUGAGGAUCACCCAUGUUUUGGUUCGUUUUAUUUUGUUCGUCUUAA [JR_SHM208A_Sub078] (puzzle: Sensor for hsa-mir-208a)
apparent KD of MS2 coat protein [2]: 0.0593 µM | apparent KD of MS2 coat protein [3]: 0.0439 µM | apparent KD of MS2 coat protein [4]: 0.0818 µM

AUAAAACAUGAGGAUCACCCAUGUCAAAAGACAUGAGGAUAUGUGCAAAUAAAAUAAGAAACAGAAGGCAUGAAAA [salish99_ss1_r3_103] (puzzle: Same State 1)
apparent KD of MS2 coat protein [2]: 0.098 µM | apparent KD of MS2 coat protein [3]: 0.105 µM | apparent KD of MS2 coat protein [4]: 0.222 µM

GUACAUAUCAGAGGAUAUCACGUCGAUUAGACGUGAGAAGGCUGAUCACACAUGAAUAUUAAUACAUGAGGAUCACCCAUGUAC [SSNG1/13-A2] (Eterna round: R96, puzzle: Same State NG 1)
apparent KD of MS2 coat protein (input ligand: FMN 200 uM): 0.0169 µM | apparent KD of MS2 coat protein [1]: 0.0285 µM | apparent KD of MS2 coat protein (input ligand: none): 0.0372 µM

UAGUACAUGCUUUUUGUCCGUCUUAGAUAACAUGAGGAUCACCCAUGUAAGGUGAAAGUUAUAUAGUUUAGGAAUAU [JR_SHM208A_Sub057] (puzzle: Sensor for hsa-mir-208a)
apparent KD of MS2 coat protein [2]: 0.136 µM | apparent KD of MS2 coat protein [3]: 0.323 µM | apparent KD of MS2 coat protein [4]: 0.178 µM

GUGGUCAGACAUGAGGAUCACCCAUGUGGAAUAAAUAAGGGAGAGGAUAUAAAAUAUAGGAUAUAUUAGAAGGCUCGGUUGGUG (Eterna round: R96, puzzle: Same State NG 3)
apparent KD of MS2 coat protein (input ligand: FMN 200 uM): 0.0957 µM | apparent KD of MS2 coat protein [1]: 0.0827 µM | apparent KD of MS2 coat protein (input ligand: none): 0.0854 µM

GGAAAGAGGUCAGGAUAUGAAUGUUUGGGACAUGAGGAUCACCCAUGUAAUAGAAGAAAUCUACAUUAGAAGGGACAAGGAAGG [AK SSNG2-V2-6] (Eterna round: R96, puzzle: Same State NG 2)
apparent KD of MS2 coat protein (input ligand: FMN 200 uM): 0.0635 µM | apparent KD of MS2 coat protein [1]: 0.0545 µM | apparent KD of MS2 coat protein (input ligand: none): 0.0793 µM

GCUCGACGUAUUGUUUACAUGAGGAUCACCCAUGUAGGUGCGGAGGAUAUCUACGUGUUUCAUGUAGAGAAGGUCGUGUCGAGC [SameState NG3 #91] (Eterna round: R96, puzzle: Same State NG 3)
apparent KD of MS2 coat protein (input ligand: FMN 200 uM): 0.0245 µM | apparent KD of MS2 coat protein [1]: 0.0592 µM | apparent KD of MS2 coat protein (input ligand: none): 0.106 µM

UUAAUGAAGUAAGGAUAUACAUGAGGAUCACUCGUAGAAGGUACUAUACAUGAGGAUCACCCAUGUUCCGGUCAGAAGACUGGA [Mat - Same State NG 1 - JL mod - D3] (Eterna round: R96, puzzle: Same State NG 1)
apparent KD of MS2 coat protein (input ligand: FMN 200 uM): 0.598 µM | apparent KD of MS2 coat protein [1]: 0.411 µM | apparent KD of MS2 coat protein (input ligand: none): 0.316 µM

AAGUUACUAUCUCAGGAUAUCAUGUCAAAGACAUGAGGAUCACCCAUGUACCAGGAAACUGGUUAUGAGAAGGGAGAUAGUAACG [Mat - Same State 2 - Mod - D53] (puzzle: Same State 2)
apparent KD of MS2 coat protein [2]: 0.497 µM | apparent KD of MS2 coat protein [3]: 0.149 µM | apparent KD of MS2 coat protein [4]: 0.443 µM

CUGAGCAAUCAAGGAUAUCACGUCGAUUAGACGUGAGAAGGUGAUCAUAACAUGAGGAUCACCCAUGUAUUACAUGGAGCUCAG [Brourd's SSNG1/1-A2 mod 1] (Eterna round: R96, puzzle: Same State NG 1)
apparent KD of MS2 coat protein (input ligand: FMN 200 uM): 0.533 µM | apparent KD of MS2 coat protein [1]: 0.124 µM | apparent KD of MS2 coat protein (input ligand: none): 0.397 µM

AGUCCAGCCAGAGCUGGACAAAAGCAUGUACAUGAGGAUCACCCAUGUUCAUGUACAAGCUUUUUGCAAGUCAAAAG [Mat - hsa-mir-208a - Mod of JL - 74] (puzzle: Sensor for hsa-mir-208a)
apparent KD of MS2 coat protein [2]: 0.503 µM | apparent KD of MS2 coat protein [3]: 0.0259 µM | apparent KD of MS2 coat protein [4]: 0.78 µM

GCGCAGCUGGGUGAGGAUAUCGGUGGUAAAACAUGAGGAUCACCCAUGUCCGGAGCUCGGACUUCCGAGAAGGCACCCGGCUGCA [Erisais] (puzzle: Same State 2)
apparent KD of MS2 coat protein [3]: 0.0272 µM

ACAUGAGAAUGAGGAUAUGUUGUACCUACAUGUGACAUGAGGAUCACCCAUGUGGUAAGUAUGAUACAGAAGGCAUAGAUAUGU [Equivalance 62 - Jieux - Same State NG 2] (Eterna round: R96, puzzle: Same State NG 2)
apparent KD of MS2 coat protein (input ligand: FMN 200 uM): 0.0189 µM | apparent KD of MS2 coat protein [1]: 0.018 µM | apparent KD of MS2 coat protein (input ligand: none): 0.0322 µM

CAGCGCUGUCGAGAGGAUAUGCGGUGGUGGACAUGAGGAUCACCCAUGUUAGCGAUAGCAUUACGGUAGAAGGCUCUACAGCUGC [Soteed - 2] (puzzle: Same State 2)
apparent KD of MS2 coat protein [2]: 0.0309 µM | apparent KD of MS2 coat protein [3]: 0.0224 µM | apparent KD of MS2 coat protein [4]: 0.033 µM

GGUUUAGUCAGGUACAGUUGCACCUGAAAACAUGAGGAUCACCCAUGUUUGGGACAAGCUUUGCUCCUCGUCUUGCC [Ralausen] (puzzle: Sensor for hsa-mir-208a)
apparent KD of MS2 coat protein [2]: 0.101 µM | apparent KD of MS2 coat protein [3]: 0.0776 µM | apparent KD of MS2 coat protein [4]: 0.152 µM

GAGAGAGGAAGCGAGGAUAUCGUGUUGAGUACAUGAGGAUCACCCAUGUUGUAGGUAGAGGUAGGCGAGAAGGCGCAGGAGAAGA [JR_SS2_Sub0100] (puzzle: Same State 2)
apparent KD of MS2 coat protein [2]: 0.0502 µM | apparent KD of MS2 coat protein [3]: 0.0393 µM | apparent KD of MS2 coat protein [4]: 0.041 µM

GUGGUCAGACAUGAGGAUCACCCAUGUGGAAUAAAUAAGGAUCAGGAUAUGGAAUAUAGGAUAUACCAGAAGGGAUGGUUGGUG (Eterna round: R96, puzzle: Same State NG 3)
apparent KD of MS2 coat protein (input ligand: FMN 200 uM): 0.0599 µM | apparent KD of MS2 coat protein [1]: 0.0417 µM | apparent KD of MS2 coat protein (input ligand: none): 0.0526 µM

UGGUACAUGGGAGGAUAUGGAGUGAAGACAUGAGGAUCACCCAUGUUAUAAAUGCCGAGAGGCAACUAGAAGGCCCAUGUACCU [JL SSNG1 3.94] (Eterna round: R96, puzzle: Same State NG 2)
apparent KD of MS2 coat protein [1]: 0.0543 µM

AGCUAUUAAUCAGGAUAUAGGGACAUGAGGAUCACCCAUGUGUACAUGAGUAAAUGUGAUCACGUCUAGAAGGGAUUACUAACA [SameState NG2 #38] (Eterna round: R96, puzzle: Same State NG 2)
apparent KD of MS2 coat protein (input ligand: FMN 200 uM): 0.184 µM | apparent KD of MS2 coat protein [1]: 0.0929 µM | apparent KD of MS2 coat protein (input ligand: none): 0.133 µM

Source: the supplement of paper PMC9170038
